In assay [1] the target is PD-1 (binding assay) (UniProt Q15116 25-167, limits assumed). Kind of assay: FCM or ELISA, graded. For orientation: An ELISA detects its analyte on a solid surface through an enzyme-linked reagent.
Assay [2] has as its target T1, PD-1 (human, UniProt Q15116 25-167, limits assumed).
T1 construct: The reporter assay used Jurkat T cells expressing human PD-1
Briefly: FCM or ELISA.

Assay [3] concerns the target CD3 (human). Briefly: CD3 binding, as described in Example 2 (ELISA or FCM).

The source of these data is patent publication US20250388669A1 (published 2025).

By EC50 is commonly meant the concentration giving half of the maximal effect. Low values mean a more potent agent, high ones a less potent agent.

PD-1 (binding assay), sequence (Q15116 25-167 limits assumed): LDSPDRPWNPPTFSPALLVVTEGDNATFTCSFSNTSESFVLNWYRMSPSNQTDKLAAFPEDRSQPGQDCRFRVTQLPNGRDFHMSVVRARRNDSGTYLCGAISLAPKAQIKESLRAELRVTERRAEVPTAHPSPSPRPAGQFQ
T1 sequence (Q15116 25-167 limits assumed): as above
CD3 (human), sequence (chain, as listed by the source): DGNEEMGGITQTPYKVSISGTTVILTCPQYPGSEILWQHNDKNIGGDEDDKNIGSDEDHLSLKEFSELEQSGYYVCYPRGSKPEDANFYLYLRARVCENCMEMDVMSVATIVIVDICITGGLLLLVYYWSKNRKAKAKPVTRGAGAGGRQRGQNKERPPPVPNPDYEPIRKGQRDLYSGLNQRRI

B1: Ly2281 (bispecific antibody)
heavy 1: QVTLKESGPALVKPTQTLTLTCTFSGFSLSTSGTCVSWIRQPPGKALEWLATICWEDSKGYNPSLKSRLTISKDTSKNQAVLTMTNMDPVDTATYYCARREDSGYFWFPYWGQGTLVTVSSASTKGPSVFPLAPSSKSTSGGTAALGCLVKDYFPEPVTVSWNSGALTSGVHTFPAVLQSSGLYSLSSVVTVPSSSLGTQTYICNVNHKPSNTKVDKKVEPKSCGGGGSGGGGSGGGGSGGGGSQVQLVQSGAEVKKPGASVKVSCKASGYTFAGFEMHWVRQAPGQGLEWMGAIDPKTGGTDYNQKFKDRVTMTRDTSISTAYMELSRLRSDDTAVYYCARDLGYFDVWGQGTLVTVSSGGGGSDKTHTCPPCPAPEAAGPSVFLFPPKPKDTLMISRTPEVTCVVVDVSHEDPEVKFNWYVDGVEVHNAKTKPREEQYNSTYRVVSVLTVLHQDWLNGKEYKCKVSNKALPAPIEKTISKAKGQPREPQVYTLPPSREEMTKNQVSLWCLVKGFYPSDIAVEWESNGQPENNYKTTPPVLDSDGSFFLYSKLTVDKSRWQQGNVFSCSVMHEALHNHYTQKSLSLSPG
heavy 2: QVTLKESGPALVKPTQTLTLTCTFSGFSLSTSGTCVSWIRQPPGKALEWLATICWEDSKGYNPSLKSRLTISKDTSKNQAVLTMTNMDPVDTATYYCARREDSGYFWFPYWGQGTLVTVSSASTKGPSVFPLAPSSKSTSGGTAALGCLVKDYFPEPVTVSWNSGALTSGVHTFPAVLQSSGLYSLSSVVTVPSSSLGTQTYICNVNHKPSNTKVDKKVEPKSCGGGGSGGGGSGGGGSGGGGSDIQMTQSPSSLSASVGDRVTITCRASQDIRSNLNWYQQKPGGAVKLLIYYTSRLHSGVPSRFSGSGSGTDYTLTISSLQPEDFATYFCQQSEKLPRTFGGGTKVEIRGGGGSDKTHTCPPCPAPEAAGPSVFLFPPKPKDTLMISRTPEVTCVVVDVSHEDPEVKFNWYVDGVEVHNAKTKPREEQYNSTYRVVSVLTVLHQDWLNGKEYKCKVSNKALPAPIEKTISKAKGQPREPQVYTLPPSREEMTKNQVSLSCAVKGFYPSDIAVEWESNGQPENNYKTTPPVLDSDGSFFLVSKLTVDKSRWQQGNVFSCSVMHEALHNRFTQKSLSLSPG
light: NIQMTQSPSSLSASVGDRVTITCKAGQNVNNYLAWYQQKPGKAPKVLIFNANSLQTGVPSRFSGSGSGTDFTLTISSLQPEDFATYYCQQYNSWPTFGGGTKVEIKRTVAAPSVFIFPPSDEQLKSGTASVVCLLNNFYPREAKVQWKVDNALQSGNSQESVTEQDSKDSTYSLSSTLTLSKADYEKHKVYACEVTHQGLSSPVTKSFNRGEC
notes: PD-1 Fabs (Ly516) x central CD137 Fv
B1: the binding result in assay [1] is “binds”.

B2: Ly2280 (bispecific antibody)
heavy 1: not shown
heavy 2: QVTLKESGPALVKPTQTLTLTCTFSGFSLSTSGTCVSWIRQPPGKALEWLATICWEDSKGYNPSLKSRLTISKDTSKNQAVLTMTNMDPVDTATYYCARREDSGYFWFPYWGQGTLVTVSSASTKGPSVFPLAPSSKSTSGGTAALGCLVKDYFPEPVTVSWNSGALTSGVHTFPAVLQSSGLYSLSSVVTVPSSSLGTQTYICNVNHKPSNTKVDKKVEPKSCGGGGSGGGGSGGGGSGGGGSDIQMTQSPSSVSASVGDRVTITCRASQGIYSWLAWYQQKPGKAPNLLIYTASTLQSGVPSRFSGSGSGTDFTLTISSLQPEDFATYYCQQANIFPLTFGGGTKVEIKGGGGSDKTHTCPPCPAPEAAGPSVFLFPPKPKDTLMISRTPEVTCVVVDVSHEDPEVKFNWYVDGVEVHNAKTKPREEQYNSTYRVVSVLTVLHQDWLNGKEYKCKVSNKALPAPIEKTISKAKGQPREPQVYTLPPSREEMTKNQVSLSCAVKGFYPSDIAVEWESNGQPENNYKTTPPVLDSDGSFFLVSKLTVDKSRWQQGNVFSCSVMHEALHNRFTQKSLSLSPG
light: NIQMTQSPSSLSASVGDRVTITCKAGQNVNNYLAWYQQKPGKAPKVLIFNANSLQTGVPSRFSGSGSGTDFTLTISSLQPEDFATYYCQQYNSWPTFGGGTKVEIKRTVAAPSVFIFPPSDEQLKSGTASVVCLLNNFYPREAKVQWKVDNALQSGNSQESVTEQDSKDSTYSLSSTLTLSKADYEKHKVYACEVTHQGLSSPVTKSFNRGEC
notes: PD-1 Fabs (Ly516) x central CD40 Fv (TM383)
On to B2, for which, in assay [1], the binding result is “binds”.

B3: Ly2281 (bispecific antibody)
chain 1: QVTLKESGPALVKPTQTLTLTCTFSGFSLSTSGTCVSWIRQPPGKALEWLATICWEDSKGYNPSLKSRLTISKDTSKNQAVLTMTNMDPVDTATYYCARREDSGYFWFPYWGQGTLVTVSSASTKGPSVFPLAPSSKSTSGGTAALGCLVKDYFPEPVTVSWNSGALTSGVHTFPAVLQSSGLYSLSSVVTVPSSSLGTQTYICNVNHKPSNTKVDKKVEPKSCGGGGSGGGGSGGGGSGGGGSQVQLVQSGAEVKKPGASVKVSCKASGYTFAGFEMHWVRQAPGQGLEWMGAIDPKTGGTDYNQKFKDRVTMTRDTSISTAYMELSRLRSDDTAVYYCARDLGYFDVWGQGTLVTVSSGGGGSDKTHTCPPCPAPEAAGPSVFLFPPKPKDTLMISRTPEVTCVVVDVSHEDPEVKFNWYVDGVEVHNAKTKPREEQYNSTYRVVSVLTVLHQDWLNGKEYKCKVSNKALPAPIEKTISKAKGQPREPQVYTLPPSREEMTKNQVSLWCLVKGFYPSDIAVEWESNGQPENNYKTTPPVLDSDGSFFLYSKLTVDKSRWQQGNVFSCSVMHEALHNHYTQKSLSLSPG
chain 2: QVTLKESGPALVKPTQTLTLTCTFSGFSLSTSGTCVSWIRQPPGKALEWLATICWEDSKGYNPSLKSRLTISKDTSKNQAVLTMTNMDPVDTATYYCARREDSGYFWFPYWGQGTLVTVSSASTKGPSVFPLAPSSKSTSGGTAALGCLVKDYFPEPVTVSWNSGALTSGVHTFPAVLQSSGLYSLSSVVTVPSSSLGTQTYICNVNHKPSNTKVDKKVEPKSCGGGGSGGGGSGGGGSGGGGSDIQMTQSPSSLSASVGDRVTITCRASQDIRSNLNWYQQKPGGAVKLLIYYTSRLHSGVPSRFSGSGSGTDYTLTISSLQPEDFATYFCQQSEKLPRTFGGGTKVEIRGGGGSDKTHTCPPCPAPEAAGPSVFLFPPKPKDTLMISRTPEVTCVVVDVSHEDPEVKFNWYVDGVEVHNAKTKPREEQYNSTYRVVSVLTVLHQDWLNGKEYKCKVSNKALPAPIEKTISKAKGQPREPQVYTLPPSREEMTKNQVSLSCAVKGFYPSDIAVEWESNGQPENNYKTTPPVLDSDGSFFLVSKLTVDKSRWQQGNVFSCSVMHEALHNRFTQKSLSLSPG
light: NIQMTQSPSSLSASVGDRVTITCKAGQNVNNYLAWYQQKPGKAPKVLIFNANSLQTGVPSRFSGSGSGTDFTLTISSLQPEDFATYYCQQYNSWPTFGGGTKVEIKRTVAAPSVFIFPPSDEQLKSGTASVVCLLNNFYPREAKVQWKVDNALQSGNSQESVTEQDSKDSTYSLSSTLTLSKADYEKHKVYACEVTHQGLSSPVTKSFNRGEC
notes: PD-1/CD137: two PD-1 Fabs, central CD137 Fv
For the molecule B3, the binding result in assay [2] was “binds”.

B4: Ly2396 (bispecific antibody, human IgG1, kappa)
chain 1: QVTLKESGPALVKPTQTLTLTCTFSGFSLSTSGTCVSWIRQPPGKALEWLATICWEDSKGYNPSLKSRLTISKDTSKNQAVLTMTNMDPVDTATYYCARREDSGYFWFPYWGQGTLVTVSSASTKGPSVFPLAPSSKSTSGGTAALGCLVKDYFPEPVTVSWNSGALTSGVHTFPAVLQSSGLYSLSSVVTVPSSSLGTQTYICNVNHKPSNTKVDKKVEPKSCDKTHTCPPCPAPEAAGPSVFLFPPKPKDTLMISRTPEVTCVVVDVSHEDPEVKFNWYVDGVEVHNAKTKPREEQYNSTYRVVSVLTVLHQDWLNGKEYKCKVSNKALPAPIEKTISKAKGQPREPQVYTLPPSREEMTKNQVSLWCLVKGFYPSDIAVEWESNGQPENNYKTTPPVLDSDGSFFLYSKLTVDKSRWQQGNVFSCSVMHEALHNHYTQKSLSLSPGGGGGSGGGGSGGGGSGGGGSQVQLVQSGAEVKKPGASVKVSCKASGYTFAGFEMHWVRQAPGQGLEWMGAIDPKTGGTDYNQKFKDRVTMTRDTSISTAYMELSRLRSDDTAVYYCARDLGYFDVWGQGTLVTVSS
chain 2: QVTLKESGPALVKPTQTLTLTCTFSGFSLSTSGTCVSWIRQPPGKALEWLATICWEDSKGYNPSLKSRLTISKDTSKNQAVLTMTNMDPVDTATYYCARREDSGYFWFPYWGQGTLVTVSSASTKGPSVFPLAPSSKSTSGGTAALGCLVKDYFPEPVTVSWNSGALTSGVHTFPAVLQSSGLYSLSSVVTVPSSSLGTQTYICNVNHKPSNTKVDKKVEPKSCDKTHTCPPCPAPEAAGPSVFLFPPKPKDTLMISRTPEVTCVVVDVSHEDPEVKFNWYVDGVEVHNAKTKPREEQYNSTYRVVSVLTVLHQDWLNGKEYKCKVSNKALPAPIEKTISKAKGQPREPQVYTLPPSREEMTKNQVSLSCAVKGFYPSDIAVEWESNGQPENNYKTTPPVLDSDGSFFLVSKLTVDKSRWQQGNVFSCSVMHEALHNRFTQKSLSLSPGGGGGSGGGGSGGGGSGGGGSDIQMTQSPSSLSASVGDRVTITCRASQDIRSNLNWYQQKPGGAVKLLIYYTSRLHSGVPSRFSGSGSGTDYTLTISSLQPEDFATYFCQQSEKLPRTFGGGTKVEIR
light: NIQMTQSPSSLSASVGDRVTITCKAGQNVNNYLAWYQQKPGKAPKVLIFNANSLQTGVPSRFSGSGSGTDFTLTISSLQPEDFATYYCQQYNSWPTFGGGTKVEIKRTVAAPSVFIFPPSDEQLKSGTASVVCLLNNFYPREAKVQWKVDNALQSGNSQESVTEQDSKDSTYSLSSTLTLSKADYEKHKVYACEVTHQGLSSPVTKSFNRGEC
notes: PD-1/CD137: two PD-1 Fabs, terminal CD137 Fv
For B4, the binding result in assay [2] is “binds”.

B5: Ly2278 (bispecific antibody)
chain 1: QVQLQQSGAELVRPGSSVKISCKASGYAFSSYWMNWVKQRPGQGLEWIGQIWPGDGDTNYNGKFKGKATLTADESSSTAYMQLSSLASEDSAVYFCARRETTTVGRYYYAMDYWGQGTTVTVSSASTKGPSVFPLAPSSKSTSGGTAALGCLVKDYFPEPVTVSWNSGALTSGVHTFPAVLQSSGLYSLSSVVTVPSSSLGTQTYICNVNHKPSNTKVDKKVEPKSCGGGGSGGGGSGGGGSGGGGSEVQLVESGGGLVQPGGSLRLSCAASGFTFSTYAMNWVRQAPGKGLEWVGRIRSKYNNYATYYADSVKGRFTISRDDSKNSLYLQMNSLKTEDTAVYYCVRHGNFGNSYVSWFAYWGQGTLVTVSSGGGGSDKTHTCPPCPAPEAAGPSVFLFPPKPKDTLMISRTPEVTCVVVDVSHEDPEVKFNWYVDGVEVHNAKTKPREEQYNSTYRVVSVLTVLHQDWLNGKEYKCKVSNKALPAPIEKTISKAKGQPREPQVYTLPPSREEMTKNQVSLWCLVKGFYPSDIAVEWESNGQPENNYKTTPPVLDSDGSFFLYSKLTVDKSRWQQGNVFSCSVMHEALHNHYTQKSLSLSPG
chain 2: QVQLQQSGAELVRPGSSVKISCKASGYAFSSYWMNWVKQRPGQGLEWIGQIWPGDGDTNYNGKFKGKATLTADESSSTAYMQLSSLASEDSAVYFCARRETTTVGRYYYAMDYWGQGTTVTVSSASTKGPSVFPLAPSSKSTSGGTAALGCLVKDYFPEPVTVSWNSGALTSGVHTFPAVLQSSGLYSLSSVVTVPSSSLGTQTYICNVNHKPSNTKVDKKVEPKSCGGGGSGGGGSGGGGSGGGGSQAVVTQEPSLTVSPGGTVTLTCRSSTGAVTTSNYANWVQQKPGQAPRGLIGGTNKRAPWTPARFSGSLLGGKAALTITGAQAEDEADYYCALWYSNLWVFGGGTKLTVLGGGGSDKTHTCPPCPAPEAAGPSVFLFPPKPKDTLMISRTPEVTCVVVDVSHEDPEVKFNWYVDGVEVHNAKTKPREEQYNSTYRVVSVLTVLHQDWLNGKEYKCKVSNKALPAPIEKTISKAKGQPREPQVYTLPPSREEMTKNQVSLSCAVKGFYPSDIAVEWESNGQPENNYKTTPPVLDSDGSFFLVSKLTVDKSRWQQGNVFSCSVMHEALHNRFTQKSLSLSPG
light: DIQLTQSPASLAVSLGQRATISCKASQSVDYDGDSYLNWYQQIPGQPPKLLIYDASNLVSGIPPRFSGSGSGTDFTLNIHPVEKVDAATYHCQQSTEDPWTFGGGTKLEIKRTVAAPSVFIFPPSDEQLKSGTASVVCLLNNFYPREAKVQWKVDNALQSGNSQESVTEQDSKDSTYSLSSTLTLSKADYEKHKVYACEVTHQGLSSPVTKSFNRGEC
notes: CD19 Fabs, central CD3 Fv
For B5, the EC50 in assay [3] turned out to be 1.46 µg/mL.
